From publication PMC10515946

Assays:
[1] = target: BG505 SOSIP (soluble Env trimer of HIV-1 BG505) (HIV-1 strain BG505); experiment: cryo-EM structure
[2] = target: 1059 SOSIP (TPA-1059 SOSIP, soluble Env trimer of the transmitted/founder HIV-1 strain 1059), purifi (HIV-1 strain 1059); experiment: cryo-EM structure

BG505 SOSIP (soluble Env trimer of HIV-1 BG505) (complex)
stoichiometry N [1]: 3

1059 SOSIP (TPA-1059 SOSIP, soluble Env trimer of the transmitted/founder HIV-1 strain 1059), purifi (complex)
stoichiometry N [2]: 3
